Results reported in patent US20130097734A1.

Columns and labels:
Experiment in all cases: cell-based or functional assay
[1] = biological target: AVR3a^KI effector protein of Phytophthora infestans (Phytophthora infestans) (UniProt Q572D3)
[2] = biological target: T1, AVR3a homolog from Phytophthora palmivora designated as L3B (Phytophthora palmivora)
T1 sequence: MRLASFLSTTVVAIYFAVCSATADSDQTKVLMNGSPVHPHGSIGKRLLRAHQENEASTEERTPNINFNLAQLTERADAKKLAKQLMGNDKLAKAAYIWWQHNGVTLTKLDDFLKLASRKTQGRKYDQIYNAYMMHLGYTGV

[3] = biological target: T2, AVR3a homolog from Phytophthora palmivora designated as L6B (Phytophthora palmivora)
T2 sequence: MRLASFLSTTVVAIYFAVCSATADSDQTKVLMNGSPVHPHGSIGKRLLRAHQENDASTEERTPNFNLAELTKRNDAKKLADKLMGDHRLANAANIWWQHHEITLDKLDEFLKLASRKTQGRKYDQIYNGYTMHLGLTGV

[4] = biological target: T3, AVR3a homolog from Phytophthora palmivora designated as L7B (Phytophthora palmivora)
T3 sequence: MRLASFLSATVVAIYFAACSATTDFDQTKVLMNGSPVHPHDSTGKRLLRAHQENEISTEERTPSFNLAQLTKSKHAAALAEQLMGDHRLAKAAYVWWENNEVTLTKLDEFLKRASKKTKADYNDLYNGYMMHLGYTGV

B1: modified R3a protein corresponding to clone GS4 (protein)
chain: MEIGLAVGGAFLSSALNVLFDRLAPHGDLLNMFQKHKDHVKLLKKLEDILLGLQIVLSDAENKQASNRHVSQWFNKLQNAVDGAENLIEQVNYEALRLKVEGQHQNLAETSNQQVSDLNLCFSDDFFLNIKDKLEETIETLEVLEKQIGRLGLKEHFGSTKQETRTPSTSLVDDSDIFGRQNDIEDLIDRLLSEDASGKKRTVVPIVGMGGLGKTTLAKAVYNDERVQIHFGLKAWFCVSEAFDAFRITKGLLQEIGSFDLKADDNLNQLQVKLKERLKGKKFLIVLDDVWNDNYNKWDELRNVFVQGDIGSKIIVTTRKESVALMMGNEQISMDNLSTESSWSLFKTHAFENMGPMGHPELEEVGKQIAAKCKGLPLALKTLAGMLRSKSEVEEWKRILRSEIWELPHNDILPALMLSYNDLPAHLKRCFSFCAIFPKDYPFRKEQVIHLWIANGLVPQEDVIIEDSGNQYFLELRSRSLFERVPNPSQGNTENLFLMHDLVNDLAQIASSKLCIRLEESQGSHMLEQSQHLSYSMGYGGEFEKLTPLYKLEQLRTLLPTCIDLPDCCHHLSKRVLHNILPRLTSLRALSLSCYEIVELPNDLFIKLKLLRFLDISRTEIKRLPDSICALYNLETLLLSSCYDLEELPLQMEKLINLRHLDISNTRPLKMPLHLSKLKSLQVLVGAKFLIGGLRMEDLGEVHNLYGSLSVVELQNVVDRREAVKAKMREKNHVDRLYLEWSGSSSADNSQTERDILDELRPHKNIKVVKITGYRGTNFPNWLADPLFLKLVKLSLRNCKNCYSLPALGQLPFLKFLSIREMHGITEVTEEFYGSWSSKKPFNCLEKLEFKDMPEWKQWDLLGSGEFPILEKLLIENCPELSLETVPIQLSSLKSFDVIGSPLVINFPLSILPTTLKRIKISDCQKLKLEQPTGEISMFLEELTLIKCDCIDDISPELLPRARKLWVQDWHNLTRFLIPTATETLDIWNCENVEILSVACGGTQMTSLTIAYCKKLKWLPERMQELLPSLKELHLSNCPEIESFPEGGLPFNLQQLAIRYCKKLVNGRKEWHLQRRLCLTALIIYHDGSDEEIVGGENWELPSSIQRLTIVNLKTLSSQHLKNLTSLQYLFIRGNLPQIQPMLEQGQCSHLTSLQSLQISSLQSLPESALPSSLSHLEISHCPNLQSLPESALPSSLSQLTINNCPNLQSLSESTLPSSLSQLEISFCPNLQYLPLKGMPSSLSELSIYKCPLLKPQLEFDKGEYWPNIAQFPTIKIDRECM
B1 showed a Cell death/HR intensity, pVnt1-R3aGS4, 1dpi [1] of 2, a Cell death/HR intensity, pVnt1-R3aGS4, 2dpi [1] of 4 and a Cell death/HR intensity, pVnt1-R3aGS4, 3dpi [1] of 4. The Cell death/HR intensity, pVnt1-R3aGS4, 1dpi [2] was 0, the Cell death/HR intensity, pVnt1-R3aGS4, 2dpi [2] was 2 and the Cell death/HR intensity, pVnt1-R3aGS4, 3dpi [2] was 3. The Cell death/HR intensity, pVnt1-R3aGS4, 1dpi [3] was 0, the Cell death/HR intensity, pVnt1-R3aGS4, 2dpi [3] was 0 and the Cell death/HR intensity, pVnt1-R3aGS4, 3dpi [3] was 0. It also gave a Cell death/HR intensity, pVnt1-R3aGS4, 1dpi [4] of 2, a Cell death/HR intensity, pVnt1-R3aGS4, 2dpi [4] of 2 and a Cell death/HR intensity, pVnt1-R3aGS4, 3dpi [4] of 2.
